Laboratory results reported in publication doi:10.1101/2021.03.22.436447 (bioRxiv, 2021).

Target: T1, spectacled caiman hemoglobin beta-type chain (Caiman crocodilus (endogenous in red …, UniProt P02131 1-146))
T1 sequence (looked up): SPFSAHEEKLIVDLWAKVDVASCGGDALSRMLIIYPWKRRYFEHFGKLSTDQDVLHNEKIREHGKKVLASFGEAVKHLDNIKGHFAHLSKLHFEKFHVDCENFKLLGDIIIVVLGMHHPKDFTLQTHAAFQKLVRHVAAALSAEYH
Experiment: SEC

B1: spectacled caiman hemoglobin alpha-type chain (natural protein)
chain: not shown
- binding result: binds
